Numbered stars: 1 amine (or outer) side, 2 acyl side, 3 side chain; on linkers, the order of the positions; unused ones are H or OH. Square brackets hold non-standard residues; d marks the D form. Side chains are listed from the residue outwards. Ends that are not written are not given here. * marks the point of attachment. C20 diacid = O=C(O)CCCCCCCCCCCCCCCCCCC(=O)*; γGlu = O=C(O)[C@H](CCC(=O)[*:2])N[*:1]; AEEA = NCCOCCOCC(=O)O; Aib = CC(C)(N)C(=O)O
What was measured:
human GIP receptor = biological target: T1, human GIP receptor (human, UniProt P48546 22-466); assay: cell-based or functional assay
T1 sequence (looked up): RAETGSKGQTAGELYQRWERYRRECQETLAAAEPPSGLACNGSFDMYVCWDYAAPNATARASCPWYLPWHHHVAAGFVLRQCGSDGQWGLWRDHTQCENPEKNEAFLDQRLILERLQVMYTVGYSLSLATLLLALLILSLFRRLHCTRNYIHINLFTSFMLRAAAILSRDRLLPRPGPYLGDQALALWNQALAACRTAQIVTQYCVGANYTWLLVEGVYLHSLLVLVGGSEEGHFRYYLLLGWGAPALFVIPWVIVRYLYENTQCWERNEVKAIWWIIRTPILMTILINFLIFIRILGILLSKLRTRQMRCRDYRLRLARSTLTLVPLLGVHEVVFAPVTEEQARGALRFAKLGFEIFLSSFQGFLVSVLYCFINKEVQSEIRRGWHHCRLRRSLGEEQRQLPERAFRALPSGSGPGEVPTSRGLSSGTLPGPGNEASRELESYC

human GLP-1 receptor = human GLP-1 receptor (human, UniProt P43220 24-463); assay: cell-based or functional assay

B1: Example 25 (peptide)
peptide: Y[Aib]EGTFTSDYSK([AEEA-AEEA-γGlu-C20 diacid])LLDKIAQ[Aib]AFIEYLIEGGPSSGAPPPS-NH2
modifications: N-terminus assumed
SMILES: CC[C@H](C)[C@H](NC(=O)[C@H](CCCCN)NC(=O)[C@H](CC(=O)O)NC(=O)[C@H](CC(C)C)NC(=O)[C@H](CC(C)C)NC(=O)[C@H](CCCCNC(=O)COCCOCCNC(=O)COCCOCCNC(=O)CC[C@H](NC(=O)CCCCCCCCCCCCCCCCCCC(=O)O)C(=O)O)NC(=O)[C@H](CO)NC(=O)[C@H](Cc1ccc(O)cc1)NC(=O)[C@H](CC(=O)O)NC(=O)[C@H](CO)NC(=O)[C@@H](NC(=O)[C@H](Cc1ccccc1)NC(=O)[C@@H](NC(=O)CNC(=O)[C@H](CCC(=O)O)NC(=O)C(C)(C)NC(=O)[C@@H](N)Cc1ccc(O)cc1)[C@@H](C)O)[C@@H](C)O)C(=O)N[C@@H](C)C(=O)N[C@@H](CCC(N)=O)C(=O)NC(C)(C)C(=O)N[C@@H](C)C(=O)N[C@@H](Cc1ccccc1)C(=O)N[C@H](C(=O)N[C@@H](CCC(=O)O)C(=O)N[C@@H](Cc1ccc(O)cc1)C(=O)N[C@@H](CC(C)C)C(=O)N[C@H](C(=O)N[C@@H](CCC(=O)O)C(=O)NCC(=O)NCC(=O)N1CCC[C@H]1C(=O)N[C@@H](CO)C(=O)N[C@@H](CO)C(=O)NCC(=O)N[C@@H](C)C(=O)N1CCC[C@H]1C(=O)N1CCC[C@H]1C(=O)N1CCC[C@H]1C(=O)N[C@@H](CO)C(N)=O)[C@@H](C)CC)[C@@H](C)CC
Human GIP receptor
  hGIPR cAMP EC50 ratio: 0.636
  hGIPR cAMP Rel EC50: 0.23 nM
Human GLP-1 receptor
  hGLP1R cAMP EC50 ratio: 0.197
  hGLP1R cAMP Rel EC50: 0.356 nM

B2: Example 26 (peptide)
peptide: Y[Aib]EGTFTSDYSIK([AEEA-AEEA-γGlu-C20 diacid])LDKIAQ[Aib]AFIEYLIEGGPSSGAPPPS-NH2
modifications: N-terminus assumed
SMILES: CC[C@H](C)[C@H](NC(=O)[C@H](CCCCN)NC(=O)[C@H](CC(=O)O)NC(=O)[C@H](CC(C)C)NC(=O)[C@H](CCCCNC(=O)COCCOCCNC(=O)COCCOCCNC(=O)CC[C@H](NC(=O)CCCCCCCCCCCCCCCCCCC(=O)O)C(=O)O)NC(=O)[C@@H](NC(=O)[C@H](CO)NC(=O)[C@H](Cc1ccc(O)cc1)NC(=O)[C@H](CC(=O)O)NC(=O)[C@H](CO)NC(=O)[C@@H](NC(=O)[C@H](Cc1ccccc1)NC(=O)[C@@H](NC(=O)CNC(=O)[C@H](CCC(=O)O)NC(=O)C(C)(C)NC(=O)[C@@H](N)Cc1ccc(O)cc1)[C@@H](C)O)[C@@H](C)O)[C@@H](C)CC)C(=O)N[C@@H](C)C(=O)N[C@@H](CCC(N)=O)C(=O)NC(C)(C)C(=O)N[C@@H](C)C(=O)N[C@@H](Cc1ccccc1)C(=O)N[C@H](C(=O)N[C@@H](CCC(=O)O)C(=O)N[C@@H](Cc1ccc(O)cc1)C(=O)N[C@@H](CC(C)C)C(=O)N[C@H](C(=O)N[C@@H](CCC(=O)O)C(=O)NCC(=O)NCC(=O)N1CCC[C@H]1C(=O)N[C@@H](CO)C(=O)N[C@@H](CO)C(=O)NCC(=O)N[C@@H](C)C(=O)N1CCC[C@H]1C(=O)N1CCC[C@H]1C(=O)N1CCC[C@H]1C(=O)N[C@@H](CO)C(N)=O)[C@@H](C)CC)[C@@H](C)CC
Human GIP receptor
  hGIPR cAMP EC50 ratio: 0.585
  hGIPR cAMP Rel EC50: 0.251 nM
Human GLP-1 receptor
  hGLP1R cAMP EC50 ratio: 0.238
  hGLP1R cAMP Rel EC50: 0.293 nM

— patent US20220048967A1 (published 2022)
